Like-named read-outs stand apart in the source and are kept apart here. Where no end group is shown, it is not given here.
How the values were obtained:
[1] = tested on: wild-type and tetA plasmid-harboring E. coli; assay: NiCl2 susceptibility, colony counts on LB agar; assay type: cell-based, Escherichia coli; conditions: for Number of colonies, Plasmid-harboring cells: E. coli with tetA plasmid; for Number of colonies, Plasmid-harboring cells / Number of colonies, Wild-type cells: LB agar, 37 °C 24 h; for Number of colonies, Wild-type cells: E. coli
Excerpt: Additionally, for the counterselection of plasmid-removed cells, we inserted the tetracycline resistance gene (tetA) into the plasmid to be removed. With the plasmid, the cells can survive in tetracycline media but not in Ni^2+ media. Conversely, without the plasmid, the cells cannot survive in tetracycline media but can survive in Ni^2+ media. The tetA gene induces host cells to accumulate twice as much Ni^2+ as normal cells, so tetA-containing cells are more susceptible to NiCl2 toxicity than normal cells. To determine a suitable Ni^2+ concentration for the selection of plasmid-removed cells, wild-type E. coli cells and tetracycline-resistant cells harboring the tetA gene in the plasmid were grown on Luria–Bertani (LB) agar plates containing 1–4 mM NiCl2. As shown in Supplementary Table 1, after incubation at 37 °C for 24 h, wild-type E. coli cells were capable of growing on LB agar plates containing up to 2.2 mM NiCl2. […] Therefore, we chose 2.0 mM NiCl2 as the selection concentration (Supplementary Table 1).
(§1) To investigate the susceptibility of tetA-harboring E. coli and tetA-harboring Methylomonas sp. DH-1 to NiCl2, wild-type cells and the cells containing the tetA gene in the plasmid (E. coli) or in the genome (Methylomonas sp. DH-1) were incubated in an LB (E. coli) or NMS (Methylomonas sp. DH-1) agar plate with different concentrations of NiCl2 (0.5–8 mM). The optimal NiCl2 concentrations that were determined to counter select tetA-removed cells were 2 mM and 4 mM for E. coli and Methylomonas sp. DH-1, respectively.

[2] = tested on: wild-type and tetA-harboring Methylomonas sp. DH-1; assay: NiCl2 susceptibility, colony counts on NMS agar; assay type: cell-based; conditions: for Number of colonies, Wild-type cells: Methylomonas sp. DH-1, NMS agar; for Number of colonies, tetA-harboring cells: Methylomonas sp. DH-1 with genomic tetA, NMS agar
Description: as §1

E. coli DH5α cells [3] = assay: Penetration efficiency of TAMRA-labeled CPPs, electroporation-based method, flow cytometry; assay type: cell-based, Escherichia coli; conditions: for Penetration efficiency (TAMRA fluorescence in E. coli): library CPPs, electroporation, Tris buffer pH 7.5, 1 h, mean of n = 3–5; for Cell penetration efficiency (TAMRA fluorescence), Electrooration - Tris buffer / Cell penetration efficiency (TAMRA fluorescence), Electrooration - DW: electrocompetent E. coli DH5α, 5 μg TAMRA-CPP, electroporation 1.8 kV; for Cell penetration efficiency (TAMRA fluorescence), Electrooration - Tris buffer: 20 mM Tris-HCl pH 7.5, 1 h; for Cell penetration efficiency (TAMRA fluorescence), Electrooration - DW: distilled water, 1 h
Excerpt: (§2) (Fig. 2a). […] First, we prepared electrocompetent and chemically competent cells.

E. coli DH5α cells [4] = assay: Inhibition of bacterial cell growth by CPPs (Max OD600 relative to control); assay type: cell-based, Escherichia coli; conditions: for Max OD (%) (Figure 3f): E. coli DH5α diluted 1/1000 in LB, 5 μg TAMRA-CPP (0.1 μg/μL), OD600 monitored 18 h, max OD of treated cells / max OD of control cells; for Growth rate (%): E. coli growth with CPP, relative to control; for Max OD (%): library CPPs, E. coli growth to stationary phase, relative to non-CPP-treated control, mean of n = 3
Description: E. coli DH5α cells were grown until OD600 = 1 at 37 °C with shaking at 200 rpm. […] Then, cell growth (OD600) was monitored for 18 h by using the Synergy^TM H1 hybrid multi-mode microplate reader (BioTek, Vermont, USA). As a control, we used E. coli cells that were not treated with CPPs.

E. coli DH5α cells [5] = assay: Penetration efficiency of TAMRA-labeled CPPs, chemical (CaCl2) treatment method, flow cytometry; assay type: cell-based, Escherichia coli; conditions: for Cell penetration efficiency (TAMRA fluorescence), Chemical (CaCl2) method - Tris buffer / Cell penetration efficiency (TAMRA fluorescence), Chemical (CaCl2) method - DW: 50 mM CaCl2-treated E. coli DH5α, 5 μg TAMRA-CPP; for Cell penetration efficiency (TAMRA fluorescence), Chemical (CaCl2) method - Tris buffer: 20 mM Tris-Cl pH 7.5, 1 h; for Cell penetration efficiency (TAMRA fluorescence), Chemical (CaCl2) method - DW: 5 × 10^7 cells/50 μL, distilled water, 1 h; for Penetration efficiency (TAMRA FI): TAMRA fluorescence intensity in E. coli, library screen of 98 CPPs
Excerpt: as §2

[6] = class (Cytotoxic / Safe), cutoff of 50%

## [Cl][Ni][Cl] [NiCl2]
[1]; NiCl2 1.8 mM
  Number of colonies, Plasmid-harboring cells: 10.67 ± 2.27
  Number of colonies, Wild-type cells: 2492 ± 94.27
[1]; NiCl2 1.9 mM
  Number of colonies, Plasmid-harboring cells: 4 ± 1.15
  Number of colonies, Wild-type cells: 2065.33 ± 181.07
[1]; NiCl2 2 mM
  Number of colonies, Plasmid-harboring cells: 0.34 ± 0.19
  Number of colonies, Wild-type cells: 1010.67 ± 121.71
[1]; NiCl2 2.1 mM
  Number of colonies, Plasmid-harboring cells: 0
  Number of colonies, Wild-type cells: 776 ± 73.11
[1]; NiCl2 2.2 mM
  Number of colonies, Plasmid-harboring cells: 0
  Number of colonies, Wild-type cells: 29 ± 4.40
[1]; NiCl2 2.3 mM
  Number of colonies, Plasmid-harboring cells: 0
  Number of colonies, Wild-type cells: 0.67 ± 0.19
[1]; NiCl2 >2.30 mM
  Number of colonies, Plasmid-harboring cells: 0
  Number of colonies, Wild-type cells: 0
[1]; LB agar plates, 37 °C, 24 h
  NiCl2 concentration up to which wild-type E. coli cells were capable of growing: 2.2 mM
[1]; LB agar plates, 37 °C, 24 h, 2.0 mM NiCl2
  Growth of tetA-harboring E. coli cells on plates containing 2.0 mM NiCl2: not able to grow
[2]; NiCl2 0.5 mM
  Number of colonies, Wild-type cells: 180 ± 6.42
  Number of colonies, tetA-harboring cells: 119 ± 6.42
[2]; NiCl2 1 mM
  Number of colonies, Wild-type cells: 128 ± 10.50
  Number of colonies, tetA-harboring cells: 125 ± 4.40
[2]; NiCl2 2 mM
  Number of colonies, Wild-type cells: 114 ± 4.04
  Number of colonies, tetA-harboring cells: 3 ± 2.08
[2]; NiCl2 4 mM
  Number of colonies, Wild-type cells: 87 ± 16.09
  Number of colonies, tetA-harboring cells: 0
[2]; NiCl2 8 mM
  Number of colonies, Wild-type cells: 21 ± 5.03
  Number of colonies, tetA-harboring cells: 0
[2]; NiCl2 >8.0 mM
  Number of colonies, Wild-type cells: 0
  Number of colonies, tetA-harboring cells: 0

## CTP (GGRRARRRRRR; also: TAMRA label, site not given here) [CPP 96, TAMRA-labeled CPP of the 98-CPP library]
E. coli DH5α cells [3]
  Penetration efficiency (TAMRA fluorescence in E. coli): 3688.0 A.U.
E. coli DH5α cells [4]; replicate 1
  Max OD (%) (Figure 3f): 80.7143%
E. coli DH5α cells [4]; replicate 2
  Max OD (%) (Figure 3f): 88.7755%
E. coli DH5α cells [4]; replicate 3
  Max OD (%) (Figure 3f): 86.7347%
E. coli DH5α cells [4]
  Growth rate (%): 85.4082%
  Max OD (%): 85.4%
E. coli DH5α cells [4]; [6]
  Anti-bacterial activity: Safe

## Penetratin (RQIKIWFPNRRMKWKK; also: TAMRA label, site not given here) [CPP 17, TAMRA-labeled CPP of the 98-CPP library, one of five used to evaluate delivery methods]
E. coli DH5α cells [3]; replicate 1
  Cell penetration efficiency (TAMRA fluorescence), Electrooration - Tris buffer: 794.592 A.U.
  Cell penetration efficiency (TAMRA fluorescence), Electrooration - DW: 634.038 A.U.
E. coli DH5α cells [3]; replicate 2
  Cell penetration efficiency (TAMRA fluorescence), Electrooration - Tris buffer: 585.819 A.U.
  Cell penetration efficiency (TAMRA fluorescence), Electrooration - DW: 587.6 A.U.
E. coli DH5α cells [3]; replicate 3
  Cell penetration efficiency (TAMRA fluorescence), Electrooration - Tris buffer: 1028.54 A.U.
  Cell penetration efficiency (TAMRA fluorescence), Electrooration - DW: 471.96 A.U.
E. coli DH5α cells [3]; replicate 4
  Cell penetration efficiency (TAMRA fluorescence), Electrooration - Tris buffer: 181.291 A.U.
E. coli DH5α cells [5]; replicate 1
  Cell penetration efficiency (TAMRA fluorescence), Chemical (CaCl2) method - Tris buffer: 29.4497 A.U.
  Cell penetration efficiency (TAMRA fluorescence), Chemical (CaCl2) method - DW: 134.244 A.U.
E. coli DH5α cells [5]; replicate 2
  Cell penetration efficiency (TAMRA fluorescence), Chemical (CaCl2) method - Tris buffer: 24.3955 A.U.
  Cell penetration efficiency (TAMRA fluorescence), Chemical (CaCl2) method - DW: 173.67 A.U.
E. coli DH5α cells [5]; replicate 3
  Cell penetration efficiency (TAMRA fluorescence), Chemical (CaCl2) method - Tris buffer: 28.6202 A.U.
  Cell penetration efficiency (TAMRA fluorescence), Chemical (CaCl2) method - DW: 170.238 A.U.
E. coli DH5α cells [5]
  Penetration efficiency (TAMRA FI): 647.56
E. coli DH5α cells [4]
  Anti-bacterial activity: Safe
  Growth rate (%): 56.8825%

## Tat48-57 (GRKKRRQRRR; also: TAMRA label, site not given here) [CPP 70, TAMRA-labeled CPP of the 98-CPP library]
E. coli DH5α cells [3]
  Penetration efficiency (TAMRA fluorescence in E. coli): 4043.3 A.U.
E. coli DH5α cells [4]; replicate 1
  Max OD (%) (Figure 3f): 81.1065%
E. coli DH5α cells [4]; replicate 2
  Max OD (%) (Figure 3f): 82.6722%
E. coli DH5α cells [4]; replicate 3
  Max OD (%) (Figure 3f): 78.7056%
E. coli DH5α cells [4]
  Growth rate (%): 80.8281%
  Max OD (%): 80.8%
E. coli DH5α cells [4]; [6]
  Anti-bacterial activity: Safe

## Tat49-57 (RKKRRQRRR; also: TAMRA label, site not given here) [CPP 45, TAMRA-labeled CPP of the 98-CPP library]
E. coli DH5α cells [3]
  Penetration efficiency (TAMRA fluorescence in E. coli): 2837.5 A.U.
E. coli DH5α cells [4]; replicate 1
  Max OD (%) (Figure 3f): 75.4515%
E. coli DH5α cells [4]; replicate 2
  Max OD (%) (Figure 3f): 62.3077%
E. coli DH5α cells [4]; replicate 3
  Max OD (%) (Figure 3f): 70.8361%
E. coli DH5α cells [4]
  Growth rate (%): 69.5318%
  Max OD (%): 69.5%
E. coli DH5α cells [4]; [6]
  Anti-bacterial activity: Safe

## Tat (GRKKRRQRRRPPQRKC; also: TAMRA label, site not given here) [CPP 67, TAMRA-labeled CPP of the 98-CPP library]
E. coli DH5α cells [3]
  Penetration efficiency (TAMRA fluorescence in E. coli): 2821.8 A.U.
E. coli DH5α cells [4]; replicate 1
  Max OD (%) (Figure 3f): 60.9603%
E. coli DH5α cells [4]; replicate 2
  Max OD (%) (Figure 3f): 54.071%
E. coli DH5α cells [4]; replicate 3
  Max OD (%) (Figure 3f): 61.2735%
E. coli DH5α cells [4]
  Growth rate (%): 58.7683%
  Max OD (%): 58.8%
E. coli DH5α cells [4]; [6]
  Anti-bacterial activity: Safe

## TatsMTS (TMG) (GRKKRRQRRRMVSAL; also: TAMRA label, site not given here) [CPP 71, TAMRA-labeled CPP of the 98-CPP library]
E. coli DH5α cells [3]
  Penetration efficiency (TAMRA fluorescence in E. coli): 3266.3 A.U.
E. coli DH5α cells [4]; replicate 1
  Max OD (%) (Figure 3f): 73.904%
E. coli DH5α cells [4]; replicate 2
  Max OD (%) (Figure 3f): 87.9958%
E. coli DH5α cells [4]; replicate 3
  Max OD (%) (Figure 3f): 80.3758%
E. coli DH5α cells [4]
  Growth rate (%): 80.7585%
  Max OD (%): 80.8%
E. coli DH5α cells [4]; [6]
  Anti-bacterial activity: Safe

## rrrrrrrrrcqcrrkn [CPP 80]
E. coli DH5α cells [5]
  Penetration efficiency (TAMRA FI): 1432.29
E. coli DH5α cells [4]; replicate 1
  Max OD (%) (Figure 3f): 65.3033%
E. coli DH5α cells [4]; replicate 2
  Max OD (%) (Figure 3f): 60%
E. coli DH5α cells [4]; replicate 3
  Max OD (%) (Figure 3f): 55.5286%
E. coli DH5α cells [4]
  Growth rate (%): 60.2773%
E. coli DH5α cells [4]; [6]
  Anti-bacterial activity: Safe

Reference: publication PMC7884711, “Identification of efficient prokaryotic cell-penetrating peptides with applications in bacterial biotechnology” (Communications Biology, 2021)
